Experimental findings from doi:10.1101/2022.06.19.496727 are described below.

For this assay, the target named is 8His-Smc3 with the J-head reporter cysteine (wild type trimer) (S. cerevisiae) (UniProt P47037). Briefly: cross-linking.

In turn, “Smc1 with the J-head reporter cysteine (wild type trimer) (from UniProt P32908 1-1225) (natural protein)” showed a percent of molecules cross-linked of 70%.
